Measured values reported in article PMC8501884.

Assays:
[1] = molecular target: NTD and CC region of CYK-4 (residues 1 to 120) (C. elegans); experiment: crystal structure
[2] = molecular target: dimerization domain of ZEN-4 (residues 530 to 601) (C. elegans); experiment: crystal structure

| stoichiometry N [1] | stoichiometry N [2] | Substance |
| --- | --- | --- |
| 2 |  | NTD and CC region of CYK-4 (residues 1 to 120) (domain or fragment) |
|  | 2 | dimerization domain of ZEN-4 (residues 530 to 601) (domain or fragment) |
